Laboratory results published in patent US20040146507A1 (Genentech, published 2004).

T1: rhesus CD11a (rhesus, UniProt H9Z8N3 26-1169)
T1 construct: whole, on cells; On rhesus peripheral blood lymphocytes or leukocytes; also called rhCD11a
T1 sequence: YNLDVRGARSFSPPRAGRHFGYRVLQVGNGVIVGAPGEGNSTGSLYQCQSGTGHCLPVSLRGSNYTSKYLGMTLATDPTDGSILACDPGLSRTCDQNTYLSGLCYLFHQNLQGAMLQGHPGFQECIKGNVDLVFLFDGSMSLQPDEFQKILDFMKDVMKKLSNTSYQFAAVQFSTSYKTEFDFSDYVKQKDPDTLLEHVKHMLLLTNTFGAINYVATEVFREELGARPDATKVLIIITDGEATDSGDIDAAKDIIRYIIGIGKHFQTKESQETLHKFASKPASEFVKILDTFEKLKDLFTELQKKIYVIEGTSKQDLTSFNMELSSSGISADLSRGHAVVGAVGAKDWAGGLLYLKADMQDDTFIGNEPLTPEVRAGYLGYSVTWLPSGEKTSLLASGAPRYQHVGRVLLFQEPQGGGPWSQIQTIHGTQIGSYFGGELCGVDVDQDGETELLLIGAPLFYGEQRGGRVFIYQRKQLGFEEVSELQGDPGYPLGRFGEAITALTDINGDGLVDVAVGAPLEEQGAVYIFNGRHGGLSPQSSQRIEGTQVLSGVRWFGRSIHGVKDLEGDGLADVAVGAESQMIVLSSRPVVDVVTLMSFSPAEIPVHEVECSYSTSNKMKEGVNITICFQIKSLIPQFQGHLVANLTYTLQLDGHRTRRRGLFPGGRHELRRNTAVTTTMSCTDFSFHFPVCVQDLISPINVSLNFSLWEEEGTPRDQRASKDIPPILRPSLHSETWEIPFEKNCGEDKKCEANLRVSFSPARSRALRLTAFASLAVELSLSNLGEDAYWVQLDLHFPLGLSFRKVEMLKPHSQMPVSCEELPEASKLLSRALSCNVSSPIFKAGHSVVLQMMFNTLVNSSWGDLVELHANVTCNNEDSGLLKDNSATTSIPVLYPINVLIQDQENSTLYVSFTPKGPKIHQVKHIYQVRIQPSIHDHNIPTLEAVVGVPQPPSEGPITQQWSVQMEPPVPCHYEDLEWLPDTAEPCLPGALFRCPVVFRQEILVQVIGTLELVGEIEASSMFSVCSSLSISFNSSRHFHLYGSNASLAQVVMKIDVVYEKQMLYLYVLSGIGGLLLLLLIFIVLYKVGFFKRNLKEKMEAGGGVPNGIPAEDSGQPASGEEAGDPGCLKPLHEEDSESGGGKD


Key:
human CD11a [1] = biological target: T2, human CD11a (human, UniProt P20701 26-1170); assay: FACScan, Jurkat cells
T2 construct: whole, on cells; On Jurkat T-cells or human peripheral blood mononuclear cells, as part of LFA-1; also called CD11a on Jurkat cells; alpha subunit of LFA-1
Protocol: (§1) Aliquots of 10⁶ Jurkat T-cells were incubated with serial dilutions of humanized and control antibodies in PBS-0.1% BSA-10 mM sodium azide for 45 min at 4° C. The cells were washed and then incubated in fluorescein-conjugated goat anti-human F(ab′)₂ (Organon Teknika, Westchester, Pa.) for 45 min at 4° C. Cells were washed and analysed on a FACScan (Becton Dickinson, Mountain View, Calif.). 8×10³ cells were acquired by list mode and gated by forward light scatter versus side light scatter, thereby excluding dead cells and debris.

rhesus CD11a = biological target: T1, rhesus CD11a; assay: rhesus PBL binding
human CD11a [2] = biological target: T2, human CD11a; assay: FACScan, Jurkat cells; remark: listed apart in the source
Protocol: as §1
Target sequence in this assay (P20701 26-1170): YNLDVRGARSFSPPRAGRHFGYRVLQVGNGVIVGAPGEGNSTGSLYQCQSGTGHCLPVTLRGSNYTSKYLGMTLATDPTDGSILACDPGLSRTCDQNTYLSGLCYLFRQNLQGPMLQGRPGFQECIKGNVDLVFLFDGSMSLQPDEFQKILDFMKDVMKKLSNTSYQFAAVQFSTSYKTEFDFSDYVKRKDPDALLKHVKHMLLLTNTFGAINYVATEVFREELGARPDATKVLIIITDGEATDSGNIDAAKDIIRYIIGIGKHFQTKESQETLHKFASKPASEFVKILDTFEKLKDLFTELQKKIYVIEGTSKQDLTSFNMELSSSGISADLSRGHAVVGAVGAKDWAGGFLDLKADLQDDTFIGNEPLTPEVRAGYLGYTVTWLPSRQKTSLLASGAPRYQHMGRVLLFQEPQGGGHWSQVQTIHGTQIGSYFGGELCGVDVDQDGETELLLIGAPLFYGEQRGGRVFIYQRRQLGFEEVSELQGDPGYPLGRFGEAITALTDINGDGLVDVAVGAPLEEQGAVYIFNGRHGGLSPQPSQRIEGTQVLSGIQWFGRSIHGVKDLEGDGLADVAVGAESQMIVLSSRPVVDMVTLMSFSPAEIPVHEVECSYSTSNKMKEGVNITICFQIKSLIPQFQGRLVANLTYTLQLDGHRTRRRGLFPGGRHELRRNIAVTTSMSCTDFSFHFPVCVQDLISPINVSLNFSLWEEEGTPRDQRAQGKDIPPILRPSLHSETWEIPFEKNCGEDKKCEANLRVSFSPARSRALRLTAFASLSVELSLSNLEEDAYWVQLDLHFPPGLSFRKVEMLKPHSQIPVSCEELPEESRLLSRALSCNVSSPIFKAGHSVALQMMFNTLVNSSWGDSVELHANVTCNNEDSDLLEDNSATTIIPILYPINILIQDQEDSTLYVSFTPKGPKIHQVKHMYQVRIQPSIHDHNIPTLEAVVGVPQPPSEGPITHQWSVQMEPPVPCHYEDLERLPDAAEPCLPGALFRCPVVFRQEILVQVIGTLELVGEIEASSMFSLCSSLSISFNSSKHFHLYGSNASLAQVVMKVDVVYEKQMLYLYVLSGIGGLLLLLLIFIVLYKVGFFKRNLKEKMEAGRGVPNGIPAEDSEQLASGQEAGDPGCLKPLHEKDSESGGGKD
To determine which CDR residues were involved in binding to human CD11a an alanine-scan (Cunningham et al., Science 244:1081 (1989)) was performed on the CDR residues of HuIgG1. Each mutant was tested for binding to CD11a on Jurkat cells. In the light chain only CDR-L3 contributes to binding.

| Binder | EC50 F(ab)/EC50 F(ab)-2 (human CD11a [1]) [ratio] | Var.EC50/HuIgG1 EC50 (rhesus CD11a) [ratio] | Var.EC50/HuIgG1 EC50 (human CD11a [2]) [ratio] | also measured |
| --- | --- | --- | --- | --- |
| HuIgG1 mutant AspH54Glu (antibody, V domains shown, HuIgG1 mutant, human IgG1; Kabat numbering; also called AspH54 change to Glu) VH: EVQLVESGGGLVQPGGSLRLSCAASGYSFTGHWMNWVRQAPGKGLEWVGMIHPSESETRYNQKFKDRFTISVDKSKNTLYLQMNSLRAEDTAVYYCARGIYFYGTTYFDYWGQGTLVTVSS VL: DIQMTQSPSSLSASVGDRVTITCRASKTISKYLAWYQQKPGKAPKLLIYSGSTLQSGVPSRFSGSGSGTDFTLTISSLQPEDFATYYCQQHNEYPLTFGQGTKVEIK |  |  |  | Mutant EC50/HuIgG1 EC50 (human CD11a [1]): 16 ratio |
| HuIgG1 mutant SerH55Gln (antibody, V domains shown, HuIgG1 mutant, human IgG1; Kabat numbering) VH: EVQLVESGGGLVQPGGSLRLSCAASGYSFTGHWMNWVRQAPGKGLEWVGMIHPSDQETRYNQKFKDRFTISVDKSKNTLYLQMNSLRAEDTAVYYCARGIYFYGTTYFDYWGQGTLVTVSS VL: DIQMTQSPSSLSASVGDRVTITCRASKTISKYLAWYQQKPGKAPKLLIYSGSTLQSGVPSRFSGSGSGTDFTLTISSLQPEDFATYYCQQHNEYPLTFGQGTKVEIK |  | 6.7 | 2.9 |  |
| HuIgG1 mutant ThrH30Ala (antibody, V domains shown, HuIgG1 mutant, human IgG1; Kabat numbering) VH: EVQLVESGGGLVQPGGSLRLSCAASGYSFAGHWMNWVRQAPGKGLEWVGMIHPSDSETRYNQKFKDRFTISVDKSKNTLYLQMNSLRAEDTAVYYCARGIYFYGTTYFDYWGQGTLVTVSS VL: DIQMTQSPSSLSASVGDRVTITCRASKTISKYLAWYQQKPGKAPKLLIYSGSTLQSGVPSRFSGSGSGTDFTLTISSLQPEDFATYYCQQHNEYPLTFGQGTKVEIK |  | 1.3 | 1.7 |  |
| HuIgG1 mutant SerH55Ala (antibody, V domains shown, HuIgG1 mutant, human IgG1; Kabat numbering) VH: EVQLVESGGGLVQPGGSLRLSCAASGYSFTGHWMNWVRQAPGKGLEWVGMIHPSDAETRYNQKFKDRFTISVDKSKNTLYLQMNSLRAEDTAVYYCARGIYFYGTTYFDYWGQGTLVTVSS VL: DIQMTQSPSSLSASVGDRVTITCRASKTISKYLAWYQQKPGKAPKLLIYSGSTLQSGVPSRFSGSGSGTDFTLTISSLQPEDFATYYCQQHNEYPLTFGQGTKVEIK |  | 1.3 | 1.3 |  |

The next lines start with results.

| EC50 F(ab)/EC50 F(ab)-2 (human CD11a [1]) [ratio] | Var.EC50/HuIgG1 EC50 (rhesus CD11a) [ratio] | Var.EC50/HuIgG1 EC50 (human CD11a [2]) [ratio] | Binder | also measured |
| --- | --- | --- | --- | --- |
| 2.9 |  |  | humanized MHM24 F(ab)-4 (Fab, V domains shown, F(ab) from E. coli; F(ab)-2 plus ValH71Arg) VH: EVQLVESGGGLVQPGGSLRLSCAASGFSFTGHWMNWVRQAPGKGLEWVGMIHPSDSETRYNQKFKDRFTISRDNSKNTLYLQMNSLRAEDTAVYYCARGIYFYGTTYFDYWGQGTLVTVSS VL: DIQMTQSPSSLSASVGDRVTITCRASKTISKYLAWYQQKPGKAPKLLIYSGSSLESGVPSRFSGSGSGTDFTLTISSLQPEDFATYYCQQHNEYPLTFGQGTKVEIK |  |
| 1.2 |  |  | humanized MHM24 F(ab)-3 (Fab, V domains shown, F(ab) from E. coli; F(ab)-2 plus PheH67Ala) VH: EVQLVESGGGLVQPGGSLRLSCAASGFSFTGHWMNWVRQAPGKGLEWVGMIHPSDSETRYNQKFKDRATISVDNSKNTLYLQMNSLRAEDTAVYYCARGIYFYGTTYFDYWGQGTLVTVSS VL: DIQMTQSPSSLSASVGDRVTITCRASKTISKYLAWYQQKPGKAPKLLIYSGSSLESGVPSRFSGSGSGTDFTLTISSLQPEDFATYYCQQHNEYPLTFGQGTKVEIK |  |
| 0.043 |  |  | humanized MHM24 F(ab)-5 (Fab, V domains shown, F(ab) from E. coli) VH: EVQLVESGGGLVQPGGSLRLSCAASGFSFTGHWMNWVRQAPGKGLEWVGMIHPSDSETRYNQKFKDRFTISVDKSSSTLYLQMNSLRAEDTAVYYCARGIYFYGTTYFDYWGQGTLVTVSS VL: DIQMTQSPSSLSASVGDRVTITCRASKTISKYLAWYQQKPGKAPKLLIYSGSSLESGVPSRFSGSGSGTDFTLTISSLQPEDFATYYCQQHNEYPLTFGQGTKVEIK | fold improvement in binding over F(ab)-2 (human CD11a [1]): 23 fold |
| 1 |  |  | humanized MHM24 F(ab)-2 (Fab, V domains shown, F(ab) from E. coli) VH: EVQLVESGGGLVQPGGSLRLSCAASGFSFTGHWMNWVRQAPGKGLEWVGMIHPSDSETRYNQKFKDRFTISVDNSKNTLYLQMNSLRAEDTAVYYCARGIYFYGTTYFDYWGQGTLVTVSS VL: DIQMTQSPSSLSASVGDRVTITCRASKTISKYLAWYQQKPGKAPKLLIYSGSSLESGVPSRFSGSGSGTDFTLTISSLQPEDFATYYCQQHNEYPLTFGQGTKVEIK | EC50 (human CD11a [1]): 0.771 µg/mL; fold weaker EC50 than chimeric IgG1 (human CD11a [1]): 148 fold |
